Fold change of SPOP bound to AR after KMT2D knockdown against control (C4-2 cells) and fold change of SPOP bound to AR after KMT2D knockdown against control (LNCaP cells) data for one substance are collected here from paper PMC12623541.

The assay has as its target androgen receptor (AR) (human (endogenous in LNCaP and C4-2)) (UniProt P10275). Kind of assay: co-IP; lysates (RIPA buffer) of LNCaP and C4-2 cells transfected with siNC or siKMT2D; immunoprecipitation with primary antibody and Protein A/G agarose at 4 °C, western blot for AR and E3 ubiquitin ligases; which protein was precipitated is not stated for this panel. A general note: In western blotting, separated proteins are transferred to a membrane and probed.
UniProt P10275, sequence (P10275 whole entry): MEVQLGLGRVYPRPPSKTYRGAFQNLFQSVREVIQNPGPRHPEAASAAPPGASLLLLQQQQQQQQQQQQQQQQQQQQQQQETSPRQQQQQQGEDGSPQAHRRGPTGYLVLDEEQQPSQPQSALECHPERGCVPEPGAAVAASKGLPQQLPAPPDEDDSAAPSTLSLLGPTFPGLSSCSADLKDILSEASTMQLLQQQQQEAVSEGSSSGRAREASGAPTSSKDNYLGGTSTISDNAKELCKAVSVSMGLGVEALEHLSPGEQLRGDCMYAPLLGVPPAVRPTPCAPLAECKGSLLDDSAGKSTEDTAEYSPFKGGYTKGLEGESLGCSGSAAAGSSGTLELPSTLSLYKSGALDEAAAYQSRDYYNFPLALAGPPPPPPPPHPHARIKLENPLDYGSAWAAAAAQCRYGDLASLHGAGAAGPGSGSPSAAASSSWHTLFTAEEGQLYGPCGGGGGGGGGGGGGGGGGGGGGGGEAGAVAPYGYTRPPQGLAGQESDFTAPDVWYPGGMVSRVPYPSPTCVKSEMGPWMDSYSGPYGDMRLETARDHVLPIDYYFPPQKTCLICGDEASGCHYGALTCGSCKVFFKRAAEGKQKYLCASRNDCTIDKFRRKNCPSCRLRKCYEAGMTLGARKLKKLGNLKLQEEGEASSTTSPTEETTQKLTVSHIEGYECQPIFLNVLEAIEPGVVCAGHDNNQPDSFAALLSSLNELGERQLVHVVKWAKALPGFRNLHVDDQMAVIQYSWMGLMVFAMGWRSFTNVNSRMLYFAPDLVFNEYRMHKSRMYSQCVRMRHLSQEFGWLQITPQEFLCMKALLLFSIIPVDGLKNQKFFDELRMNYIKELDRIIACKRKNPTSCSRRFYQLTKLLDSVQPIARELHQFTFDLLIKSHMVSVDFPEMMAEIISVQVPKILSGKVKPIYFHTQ

The substance “Speckle Type BTB/POZ protein (SPOP) (from UniProt O43791 1-374) (natural protein)” came in with a fold change of SPOP bound to AR after KMT2D knockdown against control (C4-2 cells) of 1.57 fold and a fold change of SPOP bound to AR after KMT2D knockdown against control (LNCaP cells) of 1.41 fold.
